The Ki is a measure of affinity in units of concentration, obtained from inhibition or displacement. The term EC50 denotes the concentration that produces a half-maximal response.

Bridge positions count the residues as written; N and C are the ends. Square brackets hold non-standard residues; d marks the D form. Ends that are not written are not given here. Lys(N3) = [N-]=[N+]=NCCCC[C@H](N)C(=O)O; Pra = C#CC[C@H](N)C(=O)O

Conditions in all cases: both partners purified
For assay [1], the target named is T1, recombinant human αvβ6 integrin (human, UniProt P06756 31-1048; P18564 22-709).
T1 construct: integrin αv subunit, human; integrin β6 subunit, human; details of reagents are in the Supplemental Materials; Such bought integrins are, as I recall, soluble extracellular heterodimers; also called purified αvβ6; source: bought: Bio-Techne
The experiment in a line: ELISA; competitive integrin binding assay: αvβ6-coated plates, isoDGR peptide labeled with peroxidase as probe for the integrin-binding site; Ki. A general note: An ELISA detects its analyte on a solid surface through an enzyme-linked reagent.

The target in assay [2] is T2, recombinant murine αvβ6 integrin (murine, UniProt P43406 31-1044; Q9Z0T9 22-708).
T2 construct: integrin αv subunit, mouse; integrin β6 subunit, mouse; details of reagents are in the Supplemental Materials; source: bought: Bio-Techne
T2 sequence (P43406 whole entry, chain 1 of 2): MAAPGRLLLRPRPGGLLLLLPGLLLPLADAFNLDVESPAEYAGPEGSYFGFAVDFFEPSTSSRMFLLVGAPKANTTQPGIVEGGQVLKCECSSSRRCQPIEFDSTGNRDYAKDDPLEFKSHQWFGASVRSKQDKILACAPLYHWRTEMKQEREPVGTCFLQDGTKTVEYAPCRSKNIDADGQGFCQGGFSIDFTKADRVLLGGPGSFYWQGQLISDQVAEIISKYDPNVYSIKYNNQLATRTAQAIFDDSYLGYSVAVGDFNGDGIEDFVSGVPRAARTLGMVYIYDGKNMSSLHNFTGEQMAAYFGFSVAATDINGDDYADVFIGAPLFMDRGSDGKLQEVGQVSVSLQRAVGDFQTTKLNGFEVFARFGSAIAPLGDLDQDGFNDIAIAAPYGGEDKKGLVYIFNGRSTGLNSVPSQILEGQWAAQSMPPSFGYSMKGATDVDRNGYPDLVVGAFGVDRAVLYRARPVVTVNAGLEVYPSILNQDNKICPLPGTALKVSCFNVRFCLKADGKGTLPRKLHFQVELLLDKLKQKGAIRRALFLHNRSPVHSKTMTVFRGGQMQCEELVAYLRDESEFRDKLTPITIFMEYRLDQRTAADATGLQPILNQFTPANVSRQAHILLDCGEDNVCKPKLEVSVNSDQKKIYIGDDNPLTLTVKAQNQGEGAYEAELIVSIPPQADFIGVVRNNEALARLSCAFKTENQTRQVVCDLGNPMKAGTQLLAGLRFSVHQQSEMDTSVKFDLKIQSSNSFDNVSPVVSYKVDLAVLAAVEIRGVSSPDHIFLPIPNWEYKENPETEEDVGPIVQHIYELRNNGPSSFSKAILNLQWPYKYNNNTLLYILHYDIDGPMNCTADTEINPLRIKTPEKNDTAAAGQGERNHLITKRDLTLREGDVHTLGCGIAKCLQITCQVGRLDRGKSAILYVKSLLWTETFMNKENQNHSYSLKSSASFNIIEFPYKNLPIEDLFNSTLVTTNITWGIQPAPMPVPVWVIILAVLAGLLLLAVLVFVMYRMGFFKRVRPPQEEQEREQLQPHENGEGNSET
T2 sequence (Q9Z0T9 whole entry, chain 2 of 2): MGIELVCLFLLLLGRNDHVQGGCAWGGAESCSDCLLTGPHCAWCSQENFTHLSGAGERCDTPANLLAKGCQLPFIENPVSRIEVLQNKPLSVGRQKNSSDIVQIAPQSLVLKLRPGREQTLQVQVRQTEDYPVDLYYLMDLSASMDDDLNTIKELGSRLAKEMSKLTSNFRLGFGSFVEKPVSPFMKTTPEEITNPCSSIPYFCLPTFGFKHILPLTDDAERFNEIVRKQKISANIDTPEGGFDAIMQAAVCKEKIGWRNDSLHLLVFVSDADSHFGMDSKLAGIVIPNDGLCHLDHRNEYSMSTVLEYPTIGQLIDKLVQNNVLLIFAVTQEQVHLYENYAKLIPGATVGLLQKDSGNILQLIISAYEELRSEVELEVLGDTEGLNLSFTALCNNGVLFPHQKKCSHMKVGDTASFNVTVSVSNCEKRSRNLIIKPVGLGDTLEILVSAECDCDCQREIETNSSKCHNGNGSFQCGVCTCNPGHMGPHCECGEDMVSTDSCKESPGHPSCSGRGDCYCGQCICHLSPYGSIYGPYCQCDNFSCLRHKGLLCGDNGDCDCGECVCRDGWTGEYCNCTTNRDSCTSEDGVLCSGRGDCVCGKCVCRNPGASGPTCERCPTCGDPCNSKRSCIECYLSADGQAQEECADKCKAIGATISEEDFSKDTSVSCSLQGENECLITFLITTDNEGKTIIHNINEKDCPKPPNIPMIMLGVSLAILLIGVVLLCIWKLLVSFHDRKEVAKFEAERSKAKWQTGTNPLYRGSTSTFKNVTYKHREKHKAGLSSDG
The experiment in a line: direct integrin binding assay (near-infrared fluorescence scan of plates); microtiter plates coated with αvβ6 or αvβ8; peptide-IRDye conjugates incubated 1 h, washed, bound fluorescence read with Odyssey CLx; EC50.

The target in assay [3] is T3, recombinant murine αvβ8 integrin (murine, UniProt P43406 31-1044; Q0VBD0 22-681).
T3 construct: integrin αv subunit, mouse; integrin β8 subunit, mouse; details of reagents are in the Supplemental Materials; source: bought: Bio-Techne
T3 sequence (P43406 whole entry, chain 1 of 2): as the sequence (P43406 whole entry, chain 1 of 2) above
T3 sequence (Q0VBD0 whole entry, chain 2 of 2): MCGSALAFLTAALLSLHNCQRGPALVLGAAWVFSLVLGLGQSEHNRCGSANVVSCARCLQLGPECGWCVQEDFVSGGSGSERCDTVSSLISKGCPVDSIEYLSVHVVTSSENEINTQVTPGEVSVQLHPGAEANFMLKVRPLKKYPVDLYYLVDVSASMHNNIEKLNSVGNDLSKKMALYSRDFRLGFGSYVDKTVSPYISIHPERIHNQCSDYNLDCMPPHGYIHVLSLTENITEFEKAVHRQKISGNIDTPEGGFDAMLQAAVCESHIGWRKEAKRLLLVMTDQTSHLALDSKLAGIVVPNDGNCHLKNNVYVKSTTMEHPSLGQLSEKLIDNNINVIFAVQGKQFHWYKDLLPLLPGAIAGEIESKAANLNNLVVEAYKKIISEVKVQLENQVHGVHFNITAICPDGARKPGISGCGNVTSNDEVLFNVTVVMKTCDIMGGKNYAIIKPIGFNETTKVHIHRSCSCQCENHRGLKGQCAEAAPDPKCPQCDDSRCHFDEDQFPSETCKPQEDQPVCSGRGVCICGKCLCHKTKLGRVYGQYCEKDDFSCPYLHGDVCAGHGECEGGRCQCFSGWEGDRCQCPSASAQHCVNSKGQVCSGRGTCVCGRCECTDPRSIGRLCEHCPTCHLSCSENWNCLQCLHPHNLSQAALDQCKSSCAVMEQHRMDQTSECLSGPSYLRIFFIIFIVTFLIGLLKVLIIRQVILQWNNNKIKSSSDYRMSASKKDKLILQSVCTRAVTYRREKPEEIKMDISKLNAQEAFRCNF
The description is as above.

Assay [4] concerns the target T4, recombinant human αvβ8 integrin (human, UniProt P06756 31-1048; P26012 43-684).
T4 construct: integrin αv subunit, human; integrin β8 subunit, human; details of reagents are in the Supplemental Materials; also called purified αvβ8; source: bought: Bio-Techne
Described as above.

In assay [5] the target is T1, recombinant human αvβ6 integrin. The assay is described as above.

B1: peptide 5a (peptide)
chain: CFETLRGDLRILSILR[Pra]QNL[Lys(N3)]KELQD-NH2
modifications: triazole 17-21
On to B1, for which the inhibition constant Ki in assay [1] worked out at 1.7 nM.

B2: 5a-IRDye conjugate (peptide)
chain: C(maleimide‑IRDye 800CW)FETLRGDLRILSILR[Pra]QNL[Lys(N3)]KELQD-NH2
modifications: triazole 17-21
For the molecule B2, the concentration giving a half-maximal response (EC50) in assay [2] worked out at 0.9 nM; in assay [3], 0.65 nM; in assay [4], 1.9 nM; in assay [5], 2.8 nM.

B3: 5a-NOTA conjugate (peptide)
chain: C(maleimide‑NOTA)FETLRGDLRILSILR[Pra]QNL[Lys(N3)]KELQD-NH2
modifications: triazole 17-21
B3: the inhibitory constant (Ki) in assay [1] was 2.3 nM.

Source of the values: publication PMC9760430, “A stapled chromogranin A-derived peptide homes in on tumors that express αvβ6 or αvβ8 integrins” (International Journal of Biological Sciences, 2023).
